Data set [1] relates to T1, PLTPRHGDGSF (SEQ ID NO: 6).
T1 sequence: PLTPRHGDGSF

Data set [2] has as its system His6-Smt3-LTPR-GLP-2 analog fusion protein.
Data set [3] has as its system T2, ITDPLVPRHGDGS (SEQ ID NO: 8).
T2 sequence: ITDPLVPRHGDGS

Data set [4] relates to T3, PVSGPRHGDGSF (SEQ ID NO: 7).
T3 sequence: PVSGPRHGDGSF

The target in data set [5] is T4, His6-Smt3-GLP-2 analog fusion protein.
T4 chain: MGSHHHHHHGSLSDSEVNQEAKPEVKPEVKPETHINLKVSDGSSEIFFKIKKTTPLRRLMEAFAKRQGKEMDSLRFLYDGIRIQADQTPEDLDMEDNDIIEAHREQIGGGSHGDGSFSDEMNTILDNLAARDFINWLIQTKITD

With thrombin, the figures for the “thrombin cleavage of synthetic peptide, RP-HPLC (C18)” value in data set [1], in data set [3] and in data set [4] were “PLTPRHGDGSF was cleaved the most thoroughly”, “Each of the three peptides was cleaved with thrombin” and “Each of the three peptides was cleaved with thrombin”, respectively. In data set [2], the “thrombin cleavage of fusion protein, RP-HPLC (C18)” value was “produced a complete cleaved product without partially cleaved segments after thrombin cleavage”. For the same molecule, in data set [2], the “thrombin cleavage of fusion protein, SDS-PAGE” value was “thrombin had only one cleavage site on the His6-Smt3-Linker-GLP-2 analog fusion protein”.

B1: U1p1 protease (protein)
chain: LVPELNEKDDDQVQKALASRENTQLMNRDNIEITVRDFKTLAPRRWLNDTIIEFFMKYIEKSTPNTVAFNSFFYTNLSERGYQGVRRWMKRKKTQIDKLDKIFTPINLNQSHWALGIIDLKKKTIGYVDSLSNGPNAMSFAILTDLQKYVMEESKHTIGEDFDLIHLDCPQQPNGYDCGIYVCMNTLYGSADAPLDFDYKDAIRMRRFIAHLILTDALK
For the molecule B1, the “U1p1 protease cleavage of fusion protein, SDS-PAGE” value in data set [5] is “U1p1 protease had only one cleavage cite on the His6-Smt3-GLP-2 analog fusion protein but cleaved far less efficiently than thrombin cleaving a His6-Smt3-Linker-GLP-2 analog fusion protein”.

The values are drawn from patent US20180118800.
